Test results taken from US20230167164A1 (IMMUNOWAKE, published 2023).
Positions count from the first letter of the chain named. In names and notes the source's numbering stands.

B1: IL-2(R38D/K43E/E61R)/PD-L1(mut2)-Fc (Fc fusion)
chain 1: FTVTVPKDLYVVEYGSNMTIECKFPVEKQLDLAALQVYWMMEDKNIIQFVHGEEDLKVQHSSYRQRARLLKDQLSLGNAALQITDVKLQDAGVYTCLIAYKGADYKRITVKVNAPYNKINQRILVVDPVTSEHELTCQAEGYPKAEVIWTSSDHQVLSGKTTTTNSKREEKLFNVTSTLRINTTTNEIFYCTFRRLDPEENHTAELVIPELPLAHPPNERGGGSGAPTSSSTKKTQLQLEHLLLDLQMILNGINNYKNPKLTDMLTFEFYMPKKATELKHLQCLERELKPLEEVLNLAQSKNFHLRPRDLISNINVIVLELKGSETTFMCEYADETATIVEFLNRWITFCQSIISTLTGGGGSGGGDKTHTCPPCPAPEKKGGPSVFLFPPKPKDTLMISRTPEVTCVVVDVSHEDPEVKFNWYVDGVEVHNAKTKPREEQYNSTYRVVSVLTVLHQDWLNGKEYKCKVSNKALPAPIEKTISKAKGQPREPQVYVLPPSREEMTKNQVSLLCLVKGFYPSDIAVEWESNGQPENRYMTWPPVLDSDGSFFLYSKLTVDKSRWQQGNVFSCSVMHEALHNHYTQKSLSLSPGK
chain 2: FTVTVPKDLYVVEYGSNMTIECKFPVEKQLDLAALQVYWMMEDKNIIQFVHGEEDLKVQHSSYRQRARLLKDQLSLGNAALQITDVKLQDAGVYTCLIAYKGADYKRITVKVNAPYNKINQRILVVDPVTSEHELTCQAEGYPKAEVIWTSSDHQVLSGKTTTTNSKREEKLFNVTSTLRINTTTNEIFYCTFRRLDPEENHTAELVIPELPLAHPPNERGGGGSGGGDKTHTCPPCPAPEDEGGPSVFLFPPKPKDTLMISRTPEVTCVVVDVSHEDPEVKFNWYVDGVEVHNAKTKPREEQYNSTYRVVSVLTVLHQDWLNGKEYKCKVSNKALPAPIEKTISKAKGQPREPQVYVYPPSREEMTKNQVSLTCLVKGFYPSDIAVEWESNGQPENNYKTTPPVLDEDGSFALVSKLTVDKSRWQQGNVFSCSVMHEALHNHYTQKSLSLSPGK
B2: IL-2(L18R/Q22E/R38D/K43E/E61R/Q126T)/PD-L1(mut2)-Fc (Fc fusion)
chain 1: B1 chain 1 with L243R, Q247E, Q351T
chain 2: B1 chain 2
B3: IL-2(R38D/K43E/E61R/Q126T)/PD-L1(mut2)-Fc (Fc fusion)
chain 1: B1 chain 1 with Q351T
chain 2: B1 chain 2
B4: IL-2(L18R/Q22E/R38D/K43E/E61R/Q126T/S130R)/PD-L1(mut2)-Fc (Fc fusion)
chain 1: B1 chain 1 with L243R, Q247E, Q351T, S355R
chain 2: B1 chain 2
B5: IL-2(L18R/Q22E/R38D/K43E/E61R)/PD-L1(mut2)-Fc (Fc fusion)
chain 1: B1 chain 1 with L243R, Q247E
chain 2: B1 chain 2
B6: PD-L1(mut2)-Fc (Fc fusion)
chain 1: B1 chain 2
chain 2: B1 chain 2 with D242K, E243K, Y359L, T374L, N398R, K400M, T402W, E408S, A413F, V415Y
notes: also called PD-L1(I54Q/E58M/R113T/M115L/S117A/G119K)
B7: PD-L1(mut3)-Fc (Fc fusion)
chain 1: FTVTVPKDLYVVEYGSNMTIECKFPVEKQLDLAALQVYWEMEDKNIIQFVHGEEDLKVQHSSYRQRARLLKDQLSLGNAALQITDVKLQDAGVYTCLIAYKGADYKRITVKVNAPYNKINQRILVVDPVTSEHELTCQAEGYPKAEVIWTSSDHQVLSGKTTTTNSKREEKLFNVTSTLRINTTTNEIFYCTFRRLDPEENHTAELVIPELPLAHPPNERDKTHTCPPCPAPEDEGGPSVFLFPPKPKDTLMISRTPEVTCVVVDVSHEDPEVKFNWYVDGVEVHNAKTKPREEQYNSTYRVVSVLTVLHQDWLNGKEYKCKVSNKALPAPIEKTISKAKGQPREPQVYVYPPSREEMTKNQVSLTCLVKGFYPSDIAVEWESNGQPENNYKTTPPVLDEDGSFALVSKLTVDKSRWQQGNVFSCSVMHEALHNHYTQKSLSLSPGK
chain 2: B7 chain 1 with D234K, E235K, Y351L, T366L, N390R, K392M, T394W, E400S, A405F, V407Y
notes: also called I54Q/R113T/M115L/S117A/G119K
B8: PD-L1(mut6)-Fc (Fc fusion)
chain 1: B7 chain 1 with E40M, A99S
chain 2: FTVTVPKDLYVVEYGSNMTIECKFPVEKQLDLAALQVYWMMEDKNIIQFVHGEEDLKVQHSSYRQRARLLKDQLSLGNAALQITDVKLQDAGVYTCLISYKGADYKRITVKVNAPYNKINQRILVVDPVTSEHELTCQAEGYPKAEVIWTSSDHQVLSGKTTTTNSKREEKLFNVTSTLRINTTTNEIFYCTFRRLDPEENHTAELVIPELPLAHPPNERDKTHTCPPCPAPEKKGGPSVFLFPPKPKDTLMISRTPEVTCVVVDVSHEDPEVKFNWYVDGVEVHNAKTKPREEQYNSTYRVVSVLTVLHQDWLNGKEYKCKVSNKALPAPIEKTISKAKGQPREPQVYVLPPSREEMTKNQVSLLCLVKGFYPSDIAVEWESNGQPENRYMTWPPVLDSDGSFFLYSKLTVDKSRWQQGNVFSCSVMHEALHNHYTQKSLSLSPGK
notes: also called PD-L1(I54Q/E58M/R113T/M115L/G119K)
B9: PD-L1(mut7)-Fc (Fc fusion)
chain 1: B7 chain 1 with E40M, K101G
chain 2: B8 chain 2 with S99A, K101G
notes: also called PD-L1(I54Q/E58M/R113T/M115L/S117A)
B10: PD-L1(mut4)-Fc (Fc fusion)
chain 1: B7 chain 1 with E40M, T95R
chain 2: B8 chain 2 with T95R, S99A
notes: also called I54Q/E58M/M115L/S117A/G119K
B11: PD-L1(mut5)-Fc (Fc fusion)
chain 1: B7 chain 1 with E40M, L97M
chain 2: B8 chain 2 with L97M, S99A
notes: also called I54Q/E58M/R113T/S117A/G119K

The binders below were run against T1, human IL-2 receptor (human, UniProt P01589 22-272; P14784 27-551; P31785 23-369) (assay: cell-based or functional assay).
T1 sequence (looked up) 1: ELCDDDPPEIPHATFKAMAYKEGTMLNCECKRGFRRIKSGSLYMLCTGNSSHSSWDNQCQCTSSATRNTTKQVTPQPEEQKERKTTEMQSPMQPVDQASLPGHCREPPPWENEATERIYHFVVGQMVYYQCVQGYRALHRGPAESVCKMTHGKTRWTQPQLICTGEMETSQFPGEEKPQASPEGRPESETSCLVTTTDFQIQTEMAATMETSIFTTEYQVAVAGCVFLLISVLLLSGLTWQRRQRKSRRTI
T1 sequence (looked up) 2: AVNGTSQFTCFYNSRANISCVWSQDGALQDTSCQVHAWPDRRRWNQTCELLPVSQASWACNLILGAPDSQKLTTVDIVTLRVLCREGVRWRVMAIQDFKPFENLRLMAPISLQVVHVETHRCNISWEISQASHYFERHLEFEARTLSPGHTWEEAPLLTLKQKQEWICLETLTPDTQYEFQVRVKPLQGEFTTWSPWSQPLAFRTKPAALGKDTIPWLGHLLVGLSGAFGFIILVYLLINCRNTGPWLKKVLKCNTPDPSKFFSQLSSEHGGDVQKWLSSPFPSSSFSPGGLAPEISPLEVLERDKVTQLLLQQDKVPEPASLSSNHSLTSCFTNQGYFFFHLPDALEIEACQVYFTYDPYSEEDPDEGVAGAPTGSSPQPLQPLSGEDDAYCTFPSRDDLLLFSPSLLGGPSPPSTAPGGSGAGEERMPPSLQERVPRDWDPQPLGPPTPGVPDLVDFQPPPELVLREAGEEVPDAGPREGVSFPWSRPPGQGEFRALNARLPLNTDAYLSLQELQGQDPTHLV
T1 sequence (looked up) 3: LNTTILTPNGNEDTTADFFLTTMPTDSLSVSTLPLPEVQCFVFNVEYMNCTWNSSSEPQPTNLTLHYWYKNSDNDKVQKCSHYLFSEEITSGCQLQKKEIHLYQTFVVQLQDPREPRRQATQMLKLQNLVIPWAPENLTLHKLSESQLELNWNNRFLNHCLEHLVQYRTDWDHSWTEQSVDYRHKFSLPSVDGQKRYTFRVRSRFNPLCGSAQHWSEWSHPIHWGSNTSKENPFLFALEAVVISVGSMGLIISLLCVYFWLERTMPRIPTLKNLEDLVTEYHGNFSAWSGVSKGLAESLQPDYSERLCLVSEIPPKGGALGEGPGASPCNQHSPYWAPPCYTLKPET

Row | IL-2 signal transduction, % of rIL2, HEK-IL-2 cells [%] | Binder
1 | 16 | B1
2 | < 0.1 | B2
3 | 2 | B3
4 | < 0.1 | B4
5 | 4 | B5

The binders below were run against human PD-1 overexpressed on HEK-Blue reporter cells (human, UniProt Q15116 25-288) (assay: cell-based or functional assay).
human PD-1 overexpressed on HEK-Blue reporter cells, sequence (Q15116 25-288): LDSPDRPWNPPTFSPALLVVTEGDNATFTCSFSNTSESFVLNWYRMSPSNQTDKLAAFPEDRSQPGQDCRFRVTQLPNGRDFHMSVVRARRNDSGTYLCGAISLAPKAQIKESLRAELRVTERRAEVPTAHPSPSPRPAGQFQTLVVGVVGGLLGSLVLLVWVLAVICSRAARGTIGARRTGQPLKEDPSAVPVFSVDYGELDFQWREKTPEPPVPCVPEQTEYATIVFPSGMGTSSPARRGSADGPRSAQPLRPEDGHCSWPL

Row | IL-2 signal transduction, % of rIL2, HEK-IL-2-PD-1 cells [%] | Binder
6 | 76 | B1
7 | 5 | B2
8 | 20 | B3
9 | < 0.1 | B4
10 | 35 | B5

These binders were tested against T2, mouse PD-1 (mouse, UniProt Q02242 25-167, limits assumed) (assay: PD-L1-Fc format, calibrated on PD-L1(wt)-Fc binding affinity).
T2 construct: also called mPD-1
T2 sequence (looked up): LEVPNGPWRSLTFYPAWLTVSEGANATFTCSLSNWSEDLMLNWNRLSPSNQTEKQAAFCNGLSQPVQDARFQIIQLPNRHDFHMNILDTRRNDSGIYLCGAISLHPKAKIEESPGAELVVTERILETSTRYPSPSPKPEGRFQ

Row | Kd [nM] | Binder
11 | 120 | B6
12 | 820 | B7
13 | 420 | B8
14 | 110 | B9
15 | 980 | B10
16 | 1100 | B11

What follows are binders tested against T3, human PD-1 (human, UniProt Q15116 25-167, limits assumed) in the same assay as above.
T3 construct: nivolumab is called an anti-human PD-1 antibody; also called hPD-1
T3 sequence (Q15116 25-167 limits assumed): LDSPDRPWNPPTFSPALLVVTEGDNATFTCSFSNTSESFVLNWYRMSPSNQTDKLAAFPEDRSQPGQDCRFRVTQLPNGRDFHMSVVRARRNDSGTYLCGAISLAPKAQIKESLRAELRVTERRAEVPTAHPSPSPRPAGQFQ

Row | Kd [nM] | Binder
17 | 150 | B6
18 | 910 | B7
19 | 555 | B8
20 | 98 | B9
21 | 1090 | B10
22 | 1200 | B11
